Assay results as given in patent publication US20120129778A1 (GlaxoSmithKline, published 2012).

Key:
[1] = target: human TGF-β receptor type II on human cells (A549, SBE-bla HEK 293T) (human, UniProt P37173 23-567); test: cell-based or functional assay
[2] = target: T1, recombinant human TGF-β RII/Fc chimera protein (R&D systems, cat no. 341-BR) (human, UniProt P37173 23-166); test: ELISA, plate coated with human TGF-β RII/Fc, dAb supernatant, anti-FLAG detection
T1 construct: extracellular domain; Bought protein, expressed in the mouse myeloma line NS0; also called hTGFb-RII/Fc; hTFGβ-RII-Fc; not shown: Fc region of human IgG1
T1 sequence (P37173 23-166, change not shown): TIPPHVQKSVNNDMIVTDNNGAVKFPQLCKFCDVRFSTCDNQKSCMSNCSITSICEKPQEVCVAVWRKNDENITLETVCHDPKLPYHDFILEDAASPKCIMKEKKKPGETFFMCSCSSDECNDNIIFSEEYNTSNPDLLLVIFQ
Description: dAb clones that bound human TGF-β RII/Fc were identified by an ELISA. 96-well MAXISORP™ immuno plates (Nunc, Denmark) were coated with human TGF-β RII/Fc overnight at 4° C. The wells were washed three times with PBST and then blocked with 1% TWEEN™ in PBS (1% TPBS) for 1 hour at room temperature. The block was removed and a 1:1 mixture of 1% TPBS and dAb supernatant was added for 1 hour at room temperature. The plate was washed with three times with PBST and the detection antibody (Monoclonal anti-FLAG M2-peroxidase antibody, Sigma-aldrich, UK) was added and incubated for 1 hour at room temperature. The plates were developed using a colourimetric substrate (SUREBLUE™ 1-component TMB Microwell Peroxidase solution, KPL, Maryland, USA) and the optical density (OD) measured at […], the OD₄₅₀ being proportional to the amount of bound detection antibody.

[3] = target: T1, recombinant human TGF-β RII/Fc chimera …; test: SPR (BIACORE 3000), hTGFb-RII/Fc coupled to a CM5 chip, co-inject; injection 2 = mixture of DOM23h-437-6 (100 nM) and DOM23h-271-3 (500 nM) on a surface saturated with DOM23h-437-6
Description: (§1) The SPR experiments were performed on a BIACORE™ 3000 instrument (BIACORE™, GE […]®, Sweden). hTGFb-RII/Fc antigen at 50 ug/ml in 10 mM sodium acetate buffer, pH 4 (BIACORE™, GE […]®, Sweden) was coupled to a CM5 sensor chip (BIACORE™, GE […]®, Sweden), according to the manufacturer's instructions. Approximately 5500 RUs of antigen were coupled. A blank flow cell was used as a reference. Purified dAbs were diluted in HBS-EP buffer (BIACORE™, GE […]®, Sweden) and flowed over the antigen-coated and blank flow cells at a rate of 30 μl/minute using the co-inject command. The coinject command allows the injection of a second sample immediately after the first one. The first injection consisted of a single dAb and the second injection consisted of a mixture of the first dAb and a second dAb. All dAbs were used at concentrations high enough to bind the antigen surface with maximal capacity. If the maximal binding capacity of the antigen surface by the first dAb can be exceeded by injecting the mixture of the two dAbs, the second dAb is likely to […] a different binding site or epitope on the antigen. If no further binding is observed following the second injection, then the two dAbs are likely to compete for the same antigen binding site. […]

[4] = target: T1, recombinant human TGF-β RII/Fc chimera …; test: SPR (BIACORE 3000), hTGFb-RII/Fc coupled to CM5 chip, 100 nM dAb co-injected with 100 nM DOM23h-437-9 (competitor)
Description: as §1

[5] = target: T1, recombinant human TGF-β RII/Fc chimera …; test: SPR (BIACORE 3000), hTGFb-RII/Fc coupled to a CM5 chip, co-inject; injection 1 = DOM23h-437-9 alone at 100 nM
Description: as §1

[6] = target: T1, recombinant human TGF-β RII/Fc chimera …; test: SPR (BIACORE 3000), hTGFb-RII/Fc coupled to a CM5 chip, co-inject; injection 1 = DOM23h-437-6 alone at 100 nM
Description: as §1

[7] = target: T1, recombinant human TGF-β RII/Fc chimera …; test: SPR (BIACORE 3000), hTGFb-RII/Fc coupled to a CM5 chip, co-inject; injection 2 = mixture of DOM23h-437-6 (100 nM) and DOM23h-439-6 (500 nM) on a surface saturated with DOM23h-437-6
Description: as §1

Sequence of human TGF-β receptor type II on human cells (A549, SBE-bla HEK 293T) (P37173 23-567): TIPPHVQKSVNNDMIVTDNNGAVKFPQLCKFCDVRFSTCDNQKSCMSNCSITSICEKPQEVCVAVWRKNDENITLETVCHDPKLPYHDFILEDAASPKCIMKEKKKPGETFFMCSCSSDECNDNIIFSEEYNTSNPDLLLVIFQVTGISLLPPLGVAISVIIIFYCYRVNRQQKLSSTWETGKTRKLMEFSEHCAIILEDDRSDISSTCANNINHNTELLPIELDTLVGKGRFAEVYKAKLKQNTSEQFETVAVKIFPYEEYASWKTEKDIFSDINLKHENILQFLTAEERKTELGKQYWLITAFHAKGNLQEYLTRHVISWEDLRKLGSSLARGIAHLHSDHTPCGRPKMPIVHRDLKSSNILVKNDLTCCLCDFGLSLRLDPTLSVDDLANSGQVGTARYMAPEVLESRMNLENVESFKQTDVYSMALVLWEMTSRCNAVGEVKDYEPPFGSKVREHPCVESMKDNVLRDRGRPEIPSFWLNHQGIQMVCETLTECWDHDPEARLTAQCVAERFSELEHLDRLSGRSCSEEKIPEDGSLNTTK

B1: DOM23h-262-6 (other)
VH: EVQLLESGGGLVQPGGSLRLSCAASGFTFFNYEMAWARQAPGKGLEWVSLISAEGTRTYYANSVKGRFTISRDNSKNTLYLQMNSLRAEDTAVYYCAKRRDASMGHTTRRFDHWGQGTLVTVSS
Q: For B1, which “potency in the A549 IL-11 release assay relative to DOM23h-262” value [1] is on record?
A: 54 fold

B2: DOM23h-262 (other)
VH: EVQLLESGGGLVQPGGSLRLSCAASGFTFFNYEMAWARQAPGKGLEWVSLISAEGTRTYYADSVKGRFTISRDNSKNTLYLQMNSLRAEDTAVYYCAKRRDASMGHTTRRFDYWGQGTLVTVSS
notes: Domain antibody (dAb), human immunoglobulin single variable domain, soluble monomer
Q: Does B2 bind [2]?
A: binds

B3: DOM23h-262-10 (other)
VH: EVQLLESGGGLVQPGGSLRLSCAASGFTFFNYEMAWARRAPGKGLEWVSLISADGTRTYYANSVRGRFTISRDNSKNTLYLQMNSLRAEDTAVYYCAKRRDASMGHTTRRFDYSGQGTLVTVSS
Q: B3 was tested. Which “potency in the A549 IL-11 release assay relative to DOM23h-262” value [1] did it give?
A: 540 fold

B4: DOM23h-438 (other)
chain: EVQLLESGGGLVQPGGSLRLSCAASGFTFAQGDMWWVRQAPGKGLEWVSRIGMDGDKTYYADSVKGRFTISRDNSKNTLYLQMNSLRAEDTAVYYCAKGPSSTSPFDYWGQGTLVTVSS
notes: Naive dAb
Q: Does B4 bind [2]?
A: binds

B5: DOM23h-271-3 (other)
VH: EVQLLESGGGLVQPGGSLRLSCTASGFTFTEYRMWWVRQAPGKGLEWVSLIEPIGNRTYYADSVKGRFTISRDNSKNTLYLQMNSLRAEDTAVYYCAKQIPGHMWTANPRSDYWGQGTQVTVSS
notes: VH dAb
Q: Does B5 bind [3]?
A: binds

B6: DOM23h-271-12 (other)
VH: EVQLLESGGGLVQPGGSLRLSCTASGFTFTEYRMWWVRQAPGKGLEWVSLIEPIGNRTYYANSVRGRFTISRDNSKNTLYLQMNSLRAEDTAVYYCAKQIPGHMWTANPRSDYWGQGTQVTVSS
notes: VH dAb; also called DOM23h-271-3 + D61N + K64R
Q: Does B6 bind [4]?
A: binds

B7: DOM23h-271 (other)
VH: EVQLLESGGGLVQPGGSLRLSCAASGFTFTEYRMWWVRQAPGKGLEWVSSIEPIGNRTYYADSVKGRFTISRDNSKNTLYLQMNSLRAEDTAVYYCAKQIPGHKWTANSRFDYWGQGTLVTVSS
notes: VH dAb
Q: Does B7 bind [2]?
A: binds

B8: DOM23h-348 (other)
chain: EVQLLESGGGLVQPGGSLRLSCAASGFTFSDYDMAWARQAPGKGLEWVSRISHSGYSTYYADSVKGRFTISRDNSKNTLYLQMNSLRAEDTAVYYCAKRSWDGVHAQFDYWGQGTLVTVSS
notes: Naive dAb
Q: Does B8 bind [2]?
A: binds

B9: DOM23h-437 (other)
VH: EVQLLESGGGLVQPGGSLRLSCAASGFTFSDYRMWWVRQAPGKGLEWVSAIDSQGHTTYYADSVKGRFTISRDNSKNTLYLQMNSLRAEDTAVYYCAKYGGYFDYWGQGTLVTVSS
notes: VH dAb
Q: Does B9 bind [2]?
A: binds

B10: DOM23h-251 (other)
chain: EVQLLESGGGLVQPGGSLRLSCAASGFTFSDYDMWWVRQAPGKGLEWVSKITQKGDFTYYADSVKGRFTISRDNSKNTLYLQMNSLRAEDTAVYYCAKDATHFDYWGQGTLVTVSS
notes: Naive dAb
Q: Does B10 bind [2]?
A: binds

B11: DOM23h-437-9 (other)
VH: EVQLLESGGGLVQPGGSLRLSCATSGFTFSDYRMWWVRQAPGKGLEWVSAIDSQGHTTYYANSVRGRFTISRDNSKNTLYLQMNSLRAEDTAVYYCAKYGGYFDYWGQGTLVTVSS
notes: VH dAb; also called DOM437-9
Q: Does B11 bind [5]?
A: binds

B12: DOM23h-440 (other)
chain: EVQLLESGGGLVQPGGSLRLSCAASGFTFTDDRMWWVRQAPGKGLEWVSAIDPQGQHTYYADSVKGRFTISRDNSKNTLYLQMNSLRAEDTAVYYCAKELLSFDYWGQGTLVTVSS
notes: Naive dAb
Q: Does B12 bind [2]?
A: binds

B13: DOM23h-436 (other)
chain: EVQLLESGGGLVQPGGSLRLSCAASGFTFSDYKMGWVRQAPGKGLEWVSSIWPNGGLTYYADSVKGRFTISRDNSKNTLYLQMNSLRAEDTAVYYCAKDHMGFDYWGQGTLVTVSS
notes: Naive dAb
Q: Does B13 bind [2]?
A: binds

B14: DOM23h-435 (other)
chain: EVQLLESGGGLVQPGGSLRLTCAASGFTFTDDRMWWVRQAPGKGLEWVSAIDPQGQHTYYADSVKGRFTISRDNSKNTLYLQMNSLRAEDTAVYYCAKHNSSFDYWGQGTLVTVSS
notes: Naive dAb
Q: Does B14 bind [2]?
A: binds

B15: DOM23h-33 (other)
chain: EVQLLESGGGLVQPGGSLRLSCAASGFTFSQYRMWWVRQAPGKGLEWVSAIAPSGDNTYYADSVKGRFTISRDNSKNTLYLQMNSLRAEDTAVYYCAKHRTSFDYWGQGTLVTVSS
notes: Naive dAb (immunoglobulin single variable domain)
Q: Does B15 bind [2]?
A: binds

B16: DOM23h-437-6 (other)
VH: EVQLLESGGGLVQPGGSLRLSCATSGFTFSDYRMWWVRQAPGKGLEWVSAIDSQGHTTYYADSVKGRFTISRDNSKNTLYLQMNSLRAEDTAVYYCAKYGGYFDYWGQGTLVTVSS
notes: VH dAb
Q: Does B16 bind [6]?
A: binds

B17: DOM23h-439-6 (other)
VH: EVQLLESGGGLVRPGGSLRLSCAASGFTFGTEQMWWVRQAPGKGLEWVSRIDSPGGRTYYADSVRGRFTISRDNSKNTLYLQMNSLRAEDTAVYYCAKRHAAGVSGTYFDYWGQGTLVTVSS
notes: VH dAb, already contains K64R
Q: Does B17 bind [7]?
A: binds

B18: DOM23h-439 (other)
VH: EVQLLESGGGLVQPGGSLRLSCAASGFTFGTEQMWWVRQAPGKGLEWVSRIDSPGGRTYYADSVKGRFTISRDNSKNTLYLQMNSLRAEDTAVYYCAKRHAAGVSGTYFDYWGQGTLVTVSS
notes: VH dAb
Q: Does B18 bind [2]?
A: binds

B19: DOM23h-439-8 (other)
VH: EVQLLESGGGLVRPGGSLRLSCAASGFTFGTEQMWWVRQAPGKGLEWVSRIDSPGGRTYYANSVRGRFTISRDNSKNTLYLQMNSLRAEDTAVYYCAKRHAAGVSGTYFDYWGQGTLVTVSS
notes: VH dAb; also called DM23h-439-8; DOM23h-439-6 + D61N + K64R
Q: Does B19 bind [4]?
A: binds
